According to PMC11516162, “A Novel Antigen Design Strategy to Isolate Single‐Domain Antibodies that Target Human Nav1.7 and Reduce Pain in Animal Models” (Advanced Science, 2024):
Where two headings read alike, the source gives them in different places.

Columns and labels:
[1] = target: mouse Nav1.7 (mouse (endogenous in CD-1 mice)) (UniProt Q62205)
[2] = target: rat, mouse and human FC5‐DIE3IR; assay: SPR; Biacore T200, 25 °C, HBS‐EP+ (10 mM HEPES pH 7.4, 150 mM NaCl, 3 mM EDTA, 0.05% P20); FC5‐DIE3IR and FC5 amine coupled (300–400 RU) on CM5; VHH DI‐D monomer fractions flowed at 312 nM to 5 µM, single cycle kinetics; KD by steady state analysis
human FC5‐DIE3IR [3] = target: T1, human FC5‐DIE3IR (Homo sapiens, chimera, glycosylated (about up to 50%)); assay: as above; conditions: both partners purified
T1 construct: llama VHH FC5 from its N-terminus to residue 101 (three CDR3 residues kept on the N-terminal side of the graft); human Nav1.7 alpha subunit, 70 residues of extracellular loop 3 of domain DI (DIE3IR), put in place of Ser102-Leu107 of the CDR3 of FC5; llama VHH FC5 from residue 108 to its C-terminus (four CDR3 residues kept on the C-terminal side of the graft); Two disulfide bonds in the grafted …

rat FC5‐DIE3IR = target: T2, rat FC5‐DIE3IR (Rattus norvegicus, UniProt O08562, chimera); assay: as above; conditions: both partners purified
T2 construct: llama VHH FC5 N-terminal part, as the first part of m2; rat Nav1.7 alpha subunit, the stretch equivalent to the human DIE3IR domain; llama VHH FC5 C-terminal part, as the last part of m2; source: cloned as the human one (pTT5); SEC purified (Superdex 75) for SPR

mouse FC5‐DIE3IR = target: T3, mouse FC5‐DIE3IR (Mus musculus, UniProt Q62205, chimera); assay: as above; conditions: both partners purified
T3 construct: llama VHH FC5 N-terminal part, as the first part of m2; mouse Nav1.7 alpha subunit, the stretch equivalent to the human DIE3IR domain; llama VHH FC5 C-terminal part, as the last part of m2; source: cloned as the human one (pTT5); SEC purified (Superdex 75) for SPR

human FC5‐DIE3IR [4] = target: T1, human FC5‐DIE3IR; assay: SPR; Biacore T200, 25 °C, HBS-EP+ (10 mM HEPES pH 7.4, 150 mM NaCl, 3 mM EDTA, 0.05% P20); FC5-DIE3IR (human, mouse, rat) and FC5 amine coupled (300-400 RU) on CM5; SEC-purified monomeric VHH DI-D flowed over at 312 nM to 5 µM, single cycle kinetics; KD by steady state analysis
[5] = target: Mouse FC5-DIE3IR (llama | mouse); assay: as above
[6] = target: Rat FC5-DIE3IR (llama | rat); assay: as above
human FC5‐DIE3IR [7] = target: T1, human FC5‐DIE3IR; assay: as above; remark: listed apart in the source
[8] = target: Mouse FC5-DIE3IR (llama | mouse); assay: as above; remark: listed apart in the source
[9] = target: Rat FC5-DIE3IR (llama | rat); assay: as above; remark: listed apart in the source
human FC5‐DIE3IR [10] = target: T1, human FC5‐DIE3IR; assay: as above; remark: listed apart in the source
[11] = target: Mouse FC5-DIE3IR (llama | mouse); assay: as above; remark: listed apart in the source

B1: VHH DI‐D (VHH)
VHH: QVKLEESGGGLVQPGGSLKLSCVASGFAFSSAPMDWVRKAPGKDVEWLSTIESDQDHTIYYANSVKGRFTISRDDVQNILYLQMNDLKIEDTATYYCQKRGEKKTRGQGTQVTVSS
notes: CDR3 of VHH DI-D as printed in the discussion; Isolated from a naive llama, alpaca and camel phage library (LAC-M) by panning on FC5-DIE3IR; source: E. coli, purified by IMAC (gene synthesized and cloned by GenScript; pSJF2 expression vector); SEC-purified monomer fractions for SPR
[1]
  time mice spend in pain behaviors, mouse OD1 model, VHH DI‐D (50 µg) pre‐mixed 30 min with FC5‐DIE3IR (200 µg): no reduction: 312 s
[2]
  Kd: 1560 to 1720 nM
Human FC5‐DIE3IR [3]
  binding result: binds
Rat FC5‐DIE3IR
  binding result: binds
Mouse FC5‐DIE3IR
  binding result: binds
Human FC5‐DIE3IR [4]
  Kd: 1700 nM
[5]
  Kd: 1660 nM
[6]
  Kd: 1560 nM
Human FC5‐DIE3IR [7]
  Kd: 1720 nM
[8]
  Kd: 1700 nM
[9]
  Kd: 1590 nM
Human FC5‐DIE3IR [10]
  Kd: 1710 nM
[11]
  Kd: 1680 nM
